± gives the uncertainty stated by the source.
Test: amyloid nucleation score (Sup35N fusion, yeast selection) (log enrichment); library NNK2; higher = more nucleation; inactive = no reads after selection
Summary of the method: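 On medium lacking adenine and uracil, psi-negative yeast expressing peptides of 20 random codons fused to Sup35N were grown 7 days at 30°C after a 24-hour induction with 100 μM copper sulfate. Illumina sequencing of input and output plasmid inserts gave the reads, and sequences under 100 input reads were excluded. The nucleation score is the DiMSum log enrichment of output over input reads, centred on the mode score of non-aggregating sequences.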
TKEFGECFIQMIMYNGRDIL showed an amyloid nucleation score of 1.88 ± 0.1.
In the case of TLAEFGQQPGRGACMYAVNN, the amyloid nucleation score is reported as “inactive”.
With TLCRAGLNGPWLNVLRFVPR the amyloid nucleation score was 0.615 ± 0.36.
TLDTSYYFLTRVFNHLNISE gave an amyloid nucleation score of -0.776 ± 0.55.
Work on TLELLIMD yielded an amyloid nucleation score of 0.385 ± 0.33.
TLFSMVNSTLNGWWIMT gave an amyloid nucleation score of 6.84 ± 0.061.
In the case of TLGPL, the amyloid nucleation score is reported as “inactive”.
TLHVVQFWKSCI showed an amyloid nucleation score of -0.343 ± 0.45.
Substance TLKVRNLNVQEFVVSPNQRH has an amyloid nucleation score of 4.99 ± 0.088.
Substance TLLIMCGSISHSFPSECHWL has an amyloid nucleation score of 0.716 ± 0.15.
Work on TLLTYMVLKCFQFVSEYLWK yielded an amyloid nucleation score of 3.7 ± 0.07.
With TLMWESYMWS the amyloid nucleation score was -0.897 ± 0.63.
In the case of TLNLDFFELSMPGDFSDLVS, the amyloid nucleation score is reported as “inactive”.
With TLNMNVSFPIRRAHIYEMLI the amyloid nucleation score was 0.83 ± 0.48.
Work on TLRHSKFTSIPVIETGLCGV yielded an amyloid nucleation score of -1.44 ± 1.1.
TLRIWYCWHDSAYTSSDHII showed an amyloid nucleation score of 1.45 ± 0.2.
In the case of TLSSKLFCVKASVRSMGPVV, the amyloid nucleation score is reported as 7.723 ± 0.047.
TLSVGVQL gave an amyloid nucleation score of -0.624 ± 0.63.
TLTPNNSTCTGVCFCLSYNQ showed an amyloid nucleation score of 9.475 ± 0.059.
TLVLTEFDKGIDIVL gave an amyloid nucleation score of -0.565 ± 0.26.
TLYKFM gave an amyloid nucleation score of -0.476 ± 0.74.
TMCDSIVIEYGPCIFDSSSS gave an amyloid nucleation score of 4.74 ± 0.056.
Work on TMLFRRFYSFMSTL yielded an amyloid nucleation score of -0.053 ± 1.
With TMLSLSDISFQLKKILL the amyloid nucleation score was 2.56 ± 0.15.
Substance TMQSWFSAFYLVVDMPTRYC has an amyloid nucleation score of -0.232 ± 0.29.
With TMRVHRYRTN the amyloid nucleation score was -0.493 ± 0.63.
In the case of TMVMTVQPPLHLFCLDLMHD, the amyloid nucleation score is reported as 2.24 ± 0.12.
For TMWGNI, the amyloid nucleation score was -1.59 ± 0.48.
TMYIWRL gave an amyloid nucleation score of 6.58 ± 0.039.
Work on TMYLFGYEV yielded an amyloid nucleation score of 1.31 ± 0.35.
TMYVREYSFYFLYNVDITRG showed an amyloid nucleation score of 0.649 ± 0.32.
With TNCSPVVPSCD the amyloid nucleation score was 0.224 ± 0.57.
Substance TNDMVDHVRRSNHDI has an amyloid nucleation score of 0.871 ± 0.31.
With TNGLLNYCSRYTDLDNGSYR the amyloid nucleation score was “inactive”.
TNIQN gave an amyloid nucleation score of -0.69 ± 0.61.
With TNKYFCTFGAHGARDLQMHV the amyloid nucleation score was “inactive”.
In the case of TNKYLVGSILYLFKHGWLGV, the amyloid nucleation score is reported as 0.067 ± 0.55.
Work on TPFAHSGSWCNSERLVPRLV yielded an amyloid nucleation score of 0.364 ± 0.33.
In the case of TPGLCSNL, the amyloid nucleation score is reported as -1.44 ± 1.
TPIRVFGNYNSFHFCTMSS gave an amyloid nucleation score of 8.302 ± 0.053.
With TPSDGCQHMASVVISI the amyloid nucleation score was 0.683 ± 0.8.
Substance TQCSLRLKFTCYAMRSFGQY has an amyloid nucleation score of 5.02 ± 0.096.
In the case of TRGNM, the amyloid nucleation score is reported as 0.63 ± 0.39.
With TRINMGIFCLQDKVPMLRDE the amyloid nucleation score was 3 ± 0.082.
Substance TRIVS has an amyloid nucleation score of -0.415 ± 0.25.
TRMNSVYKVEIRRLVKMVSW gave an amyloid nucleation score of 0.242 ± 0.21.
In the case of TRNWRGYVCYSEVIIVVKQE, the amyloid nucleation score is reported as -0.839 ± 0.78.
Work on TRRGF yielded an amyloid nucleation score of -0.357 ± 0.3.
Substance TRSPCGRCDSEFLNASLAGL has an amyloid nucleation score of 0.71 ± 0.36.
TRVGGWKTSG showed an amyloid nucleation score of 0.945 ± 0.32.
With TRYYMYIRDVH the amyloid nucleation score was -0.533 ± 0.44.
With TSAPSKSLLLGVIIIGAFPD the amyloid nucleation score was “inactive”.
For TSERRLNYTCCNYWYMG, the amyloid nucleation score was 9.053 ± 0.04.
TSFGWSGSCKLMYSMSTSGT showed an amyloid nucleation score of 0.636 ± 0.3.
TSGFSIIRVIVNYIYALETR gave an amyloid nucleation score of 3.86 ± 0.12.
TSGLAGGDWNWAS gave an amyloid nucleation score of 0.314 ± 0.64.
With TSIYYISNIA the amyloid nucleation score was 0.568 ± 0.24.
TSKWQRNLFGDGSLKEFTGE showed an amyloid nucleation score of -0.712 ± 1.1.
TSNCS gave an amyloid nucleation score of 0.579 ± 0.3.
Work on TSNRRTYGWHDQTCGQGVWY yielded an amyloid nucleation score of 1.1 ± 0.29.
Substance TSNRTTNSLLMCDKLRNTSV has an amyloid nucleation score of -0.345 ± 0.25.
With TSPRRACWSIQSDDWFGFEW the amyloid nucleation score was 1.33 ± 0.38.
TSQQRAYITP showed an amyloid nucleation score of -0.703 ± 1.
With TSSCFDCSFNMEFLMVLVSF the amyloid nucleation score was 1.52 ± 0.2.
TSSLDEEALS gave an amyloid nucleation score of -0.648 ± 0.55.
With TSSLYISMMVLL the amyloid nucleation score was 4.07 ± 0.074.
TSSSYTSTFDRGLMNLRTCL gave an amyloid nucleation score of -0.039 ± 0.25.
TSSWIMIRS gave an amyloid nucleation score of 1.52 ± 0.19.
With TSWCSIHTVMLYLFLIVCQY the amyloid nucleation score was “inactive”.
For TTALGRFMFDLCNDDWYSLV, the amyloid nucleation score was “inactive”.
For TTCDNEREGTLKYVNVCCNL, the amyloid nucleation score was 5.42 ± 0.045.
For TTENNCLVREKVVYGWMWSS, the amyloid nucleation score was 0.149 ± 0.25.
TTFMRVVLFAPVLYMYGKNR showed an amyloid nucleation score of 5.492 ± 0.043.
In the case of TTGNQLKKCVDKCGGRSGGE, the amyloid nucleation score is reported as 0.938 ± 0.45.
TTHVNLIKRRGYFRRCVFQL gave an amyloid nucleation score of 0.087 ± 0.79.
TTLYGNSRFTVCMTKGW gave an amyloid nucleation score of -0.271 ± 0.74.
In the case of TTLYMACYSSCDEGN, the amyloid nucleation score is reported as -0.193 ± 0.27.
In the case of TTRSRVWRKLGSSCTI, the amyloid nucleation score is reported as 0.242 ± 0.31.
Substance TTSGNTIHIYVIQLSIQKFS has an amyloid nucleation score of 5.39 ± 0.06.
In the case of TVASTYVLVTCHRAFDQS, the amyloid nucleation score is reported as 3.46 ± 0.079.
For TVFWGTMVGPQRGVVGLESF, the amyloid nucleation score was 0.593 ± 0.74.
Substance TVGEPIIRLYRFVRFFCLAN has an amyloid nucleation score of -1.79 ± 0.78.
With TVGIAKKNMVR the amyloid nucleation score was 0.503 ± 0.43.
In the case of TVGRWH, the amyloid nucleation score is reported as -0.939 ± 0.76.
With TVIIDDTCICFYYIEYMWCE the amyloid nucleation score was “inactive”.
For TVLLWD, the amyloid nucleation score was “inactive”.
